Measured values published in patent US20220372120A1 (GEMINI THERAPEUTICS SUB, published 2022).
Where a chain is given by its changes, count along the chain named. “And” between values parts separate entries of the source, which are not always exact repeats. Identical values can stand only once.

B1: Antibody 1 (antibody, V domains shown)
VH: QVQLQESGPGLVKPSQTLSLTCTVSGFSLTNYGVYWIRQHPGKGLEWIGVVWSGGTTEFNPSLKSRVTISKDTSKNQVSLKLSSVTAADTAVYYCARNFGNYAMDYWGQGTSVTVSS
VL: DIQLTQSPSSLSASVGDRVTITCKASSSVTYLHWYQQKPGKAPKPLIYATSNLASGVPSRFSGSGSGTDFTLTISSLQPEDFATYYCQHRSSSNPLTFGAGTKLELK
B2: Antibody 2 (antibody, V domains shown)
VH: B1 VH with V51I, F59Y, L63M, Y106F
VL: B1 VL
B3: Antibody 4 (antibody, V domains shown)
VH: B1 VH with V51I, F59Y, L63M, Y106F
VL: B1 VL with K24R, S27T, L32M, T50S
B4: Antibody 3 (antibody, V domains shown)
VH: B1 VH
VL: B1 VL with K24R, S27T, L32M, T50S
B5: FHR-1.3B4 (antibody, V domains shown)
VH: QVQLRQSGPGLVQPSQSLSITCTVSGFSLTNYGVYWVRQSPGKGLEWLGVIWSGGTTDYSAAFISRLSISKDNSKSQVFFKMNSLQADDTAIYYCARNFGNYAMDYWGQGTSVTVSS
VL: QIVLSQSPTILSASPGEKVTMTCRASSSVTYMHWYQQKPGSSPKPWIYATSNLASGVPARFSGSGSGTSYSLTISRVEAEDAATYYCQQRSSSNPLTFGAGTKLELK
notes: Mouse monoclonal antibody raised in BALB/c mice against recombinant human FHR-1 (hybridoma); kappa light chain implied by capture on rat anti-mouse kappa RM19; also called anti-FHR-1.3B4; anti-FHR-1 3B4

Each molecule was assayed against T1, Human purified factor H (human, UniProt P08603 19-1231) (assay: cell-based or functional assay).
T1 sequence (P08603 19-1231): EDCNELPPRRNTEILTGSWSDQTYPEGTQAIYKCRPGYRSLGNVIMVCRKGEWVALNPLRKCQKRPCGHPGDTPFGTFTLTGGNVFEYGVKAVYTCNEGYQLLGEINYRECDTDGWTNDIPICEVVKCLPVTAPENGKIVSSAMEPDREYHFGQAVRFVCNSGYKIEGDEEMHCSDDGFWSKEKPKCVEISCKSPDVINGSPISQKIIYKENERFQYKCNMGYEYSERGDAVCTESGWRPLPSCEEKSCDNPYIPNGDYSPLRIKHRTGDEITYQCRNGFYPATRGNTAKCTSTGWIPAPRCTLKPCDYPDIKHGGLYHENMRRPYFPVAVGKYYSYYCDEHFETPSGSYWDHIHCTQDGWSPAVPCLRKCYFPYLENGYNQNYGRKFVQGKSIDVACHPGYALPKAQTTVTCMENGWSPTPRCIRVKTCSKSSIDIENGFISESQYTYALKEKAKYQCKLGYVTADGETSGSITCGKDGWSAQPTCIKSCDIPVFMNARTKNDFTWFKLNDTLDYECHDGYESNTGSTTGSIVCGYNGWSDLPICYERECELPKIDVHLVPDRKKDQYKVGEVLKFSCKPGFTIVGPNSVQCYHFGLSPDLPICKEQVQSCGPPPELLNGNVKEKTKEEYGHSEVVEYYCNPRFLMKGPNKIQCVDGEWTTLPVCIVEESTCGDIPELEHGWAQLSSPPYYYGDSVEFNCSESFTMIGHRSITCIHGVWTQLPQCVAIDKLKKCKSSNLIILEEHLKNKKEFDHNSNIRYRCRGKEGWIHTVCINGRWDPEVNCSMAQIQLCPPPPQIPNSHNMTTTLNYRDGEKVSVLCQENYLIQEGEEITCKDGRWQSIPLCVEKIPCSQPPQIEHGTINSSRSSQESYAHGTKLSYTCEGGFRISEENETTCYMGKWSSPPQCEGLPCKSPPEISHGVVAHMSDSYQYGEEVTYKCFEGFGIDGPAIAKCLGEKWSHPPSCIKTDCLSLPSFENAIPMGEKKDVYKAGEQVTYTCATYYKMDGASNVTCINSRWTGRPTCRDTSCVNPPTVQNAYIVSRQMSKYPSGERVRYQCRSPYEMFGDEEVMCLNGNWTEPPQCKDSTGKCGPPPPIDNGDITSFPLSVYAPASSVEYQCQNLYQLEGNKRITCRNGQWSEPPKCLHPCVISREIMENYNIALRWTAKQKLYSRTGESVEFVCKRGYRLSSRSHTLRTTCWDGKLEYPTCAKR
In the case of B1, the “IC50 of inhibition of C3b deposition on LPS, 10% normal human serum” value (from here on “IC50 of inhibition … 10% normal human serum”) is reported as 2.26 µg/ml and 15.1 nM. For B2, the “IC50 of inhibition … 10% normal human serum” value was 2.82 µg/ml and 18.8 nM. B3 was tested, and the “IC50 of inhibition … 10% normal human serum” value was 3.51 µg/ml and 23.4 nM. With B4 the “IC50 of inhibition … 10% normal human serum” value was 3.47 µg/ml and 23.1 nM. B5 was tested, and the “IC50 of inhibition … 10% normal human serum” value was 38 nM and 5.7 µg/ml.

Molecular target: T1, Human purified factor H
Experiment: cell-based or functional assay
Remark: another data set of the same source
For B1, the “IC50 of inhibition of C3b deposition on LPS, Replicate 1” value (from here on “IC50 of inhibition … Replicate 1”) was 3.5 µg/ml and 23.4 nM and the “IC50 of inhibition of C3b deposition on LPS, Replicate 2” value (“IC50 of inhibition … Replicate 2” below) was 2.26 µg/ml and 15.1 nM. With B2 the “IC50 of inhibition … Replicate 1” value was 3.68 µg/ml and 24.5 nM and the “IC50 of inhibition … Replicate 2” value was 2.82 µg/ml and 18.8 nM. With B3 the “IC50 of inhibition … Replicate 1” value was 4.34 µg/ml and 28.9 nM and the “IC50 of inhibition … Replicate 2” value was 3.51 µg/ml and 23.4 nM. B4 was tested, and the “IC50 of inhibition … Replicate 1” value was 4.14 µg/ml and 27.6 nM and the “IC50 of inhibition … Replicate 2” value was 3.47 µg/ml and 23.1 nM.

Molecular target: T1, Human purified factor H
Experiment: cell-based or functional assay
Remark: another data set of the same source
B1 was tested, and the “IC50 of inhibition of SRBC hemolysis, 10% human serum with anti-FH.09” value was 10.6 ug/ml and 70.7 nM. For B2, the “IC50 of inhibition of SRBC hemolysis, 10% human serum with anti-FH.09” value was 10.1 ug/ml and 67.3 nM. B3 was tested, and the “IC50 of inhibition of SRBC hemolysis, 10% human serum with anti-FH.09” value was 11.5 ug/ml and 76.7 nM. For B4, the “IC50 of inhibition of SRBC hemolysis, 10% human serum with anti-FH.09” value was 9.4 ug/ml and 62.7 nM. B5 was tested, and the “IC50 of inhibition of SRBC hemolysis, 10% human serum with anti-FH.09” value was 11.4 ug/ml and 76 nM.

Molecular target: T1, Human purified factor H
Experiment: cell-based or functional assay
Remark: another data set of the same source
With B1 the “IC50 of inhibition of SRBC hemolysis, first replicate” value (shortened to “IC50 of inhibition … first replicate”) was 10.7 µg/ml and 71.3 nM and the “IC50 of inhibition of SRBC hemolysis, second replicate” value (from here on “IC50 of inhibition … second replicate”) was 10.9 µg/ml and 72.7 nM. B2 was tested, and the “IC50 of inhibition … first replicate” value was 11.4 µg/ml and 76.3 nM and the “IC50 of inhibition … second replicate” value was 10.4 µg/ml and 69.3 nM. B3 was tested, and the “IC50 of inhibition … first replicate” value was 11.5 µg/ml and 76.5 nM and the “IC50 of inhibition … second replicate” value was 11.8 µg/ml and 78.5 nM. For B4, the “IC50 of inhibition … first replicate” value was 11.1 µg/ml and 74 nM and the “IC50 of inhibition … second replicate” value was 9.1 µg/ml and 60.7 nM.

The molecules below were run against purified C3b (Complement Technologies) (UniProt P01024) (assay: SPR (Biacore T200, 37 C), C3b amine-coupled to chip, pdFH injected alone, equilibrium analysis).
“Human purified factor H (from UniProt P08603 19-1231)” was tested, and the Kd was 1300 nM.

These molecules were tested against T1, Human purified factor H (assay: SPR (BiaCore T200), antibody captured on Protein A or Protein G chip, full length FH flowed over).
Method: To determine binding affinity of Antibodies 1-4, surface plasmon resonance (SPR) experiments were performed using a BiaCore T200 (GE Healthcare) and CMS sensor chips (GE Healthcare) in accordance with the manufacturer's instructions. Briefly, Antibodies […] or anti-FHR-1.3B4 were captured onto a Protein A or Protein G coupled chip and full length FH was flown over the captured moAB at decreasing concentrations.
With B1 the Kd was 0.5 nM, the koff was 2.67e-05 s⁻¹ and the kon was 53800 M⁻¹ s⁻¹. For B2, the Kd was 0.52 nM, the koff was 3.06e-05 s⁻¹ and the kon was 58500 M⁻¹ s⁻¹. B3 was tested, and the Kd was 0.58 nM, the koff was 3.14e-05 s⁻¹ and the kon was 55300 M⁻¹ s⁻¹. B4 was tested, and the Kd was 0.85 nM, the koff was 4.07e-05 s⁻¹ and the kon was 48500 M⁻¹ s⁻¹. With B5 the Kd was 0.91 nM, the koff was 5.32e-05 s⁻¹ and the kon was 59500 M⁻¹ s⁻¹.
